Assay results published in patent US20250154250A1, “CEACAM5 ADC-ANTI-PD1/PD-L1 COMBINATION THERAPY” (SANOFI, priority 2021, published 2025).

Target: T1, recombinant human CEACAM5 (Homo sapiens, UniProt P06731)
T1 sequence (P06731 35-676): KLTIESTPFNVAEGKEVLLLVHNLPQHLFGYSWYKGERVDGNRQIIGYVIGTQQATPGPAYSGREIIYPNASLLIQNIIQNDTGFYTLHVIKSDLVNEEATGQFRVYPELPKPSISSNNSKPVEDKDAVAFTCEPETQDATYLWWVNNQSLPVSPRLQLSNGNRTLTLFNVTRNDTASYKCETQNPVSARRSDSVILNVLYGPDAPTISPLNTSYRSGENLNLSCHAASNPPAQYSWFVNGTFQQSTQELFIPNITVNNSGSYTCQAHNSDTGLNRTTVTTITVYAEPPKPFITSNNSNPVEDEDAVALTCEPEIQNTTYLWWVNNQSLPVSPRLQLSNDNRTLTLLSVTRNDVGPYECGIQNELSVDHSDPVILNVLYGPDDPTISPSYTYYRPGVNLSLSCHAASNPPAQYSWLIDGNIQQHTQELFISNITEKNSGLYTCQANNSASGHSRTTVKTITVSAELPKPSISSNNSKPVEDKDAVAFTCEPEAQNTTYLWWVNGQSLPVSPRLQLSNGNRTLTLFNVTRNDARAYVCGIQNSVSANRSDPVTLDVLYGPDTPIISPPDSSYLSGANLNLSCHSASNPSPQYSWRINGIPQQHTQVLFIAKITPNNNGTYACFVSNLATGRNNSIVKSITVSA
Assay: ELISA binding to recombinant human CEACAM5
Conditions: read-out: affinity (ELISA)
Description: “Affinity” is defined, in theory, by the equilibrium association between the whole antibody and the antigen. It can be experimentally assessed by a variety of known methods, such as measuring association and dissociation rates with surface plasmon resonance or measuring the EC50 (or apparent KD) in an immunochemical assay (ELISA, FACS). In these assays, the EC50 is the concentration of the antibody which induces a response halfway between the baseline and maximum after some specified exposure time on a defined concentration of antigen by ELISA (enzyme-linked immuno-sorbent assay) or cell expressing the antigen by FACS (Fluorescence Activated Cell Sorting).
Affinity for human CEACAM5 or for Macaca fascicularis CEACAM5 may be determined as the EC50 value in an ELISA using soluble recombinant CEACAM5 as capture antigen.

B1: naked antibody: humanized anti-CEACAM5 antibody (tusamitamab), CAS Registry No. 2349294-95-5; VH SEQ ID NO: 6, VL SEQ ID NO: 7 (antibody, V domains shown)
VH: EVQLQESGPGLVKPGGSLSLSCAASGFVFSSYDMSWVRQTPERGLEWVAYISSGGGITYAPSTVKGRFTVSRDNAKNTLYLQMNSLTSEDTAVYYCAAHYFGSSGPFAYVVGQGTLVTVSS
VL: DIQMTQSPASLSASVGDRVTITCRASENIFSYLAWYQQKPGKSPKLLVYNTRTLAEGVPSRFSGSGSGTDFSLTISSLQPEDFATYYCQHHYGTPFTFGSGTKLEI
  EC50: ~0.02 nM
